Here are results for six molecules from US20250340659A1 (PETMEDIX, published 2025).

Where a chain is given by its changes, count along the chain named. Read-outs that look alike come from different tables or passages of the source.

In test [1] the target is T1, canine OX40L, full length membrane form, expressed on HEK293 cells (canine).
T1 sequence: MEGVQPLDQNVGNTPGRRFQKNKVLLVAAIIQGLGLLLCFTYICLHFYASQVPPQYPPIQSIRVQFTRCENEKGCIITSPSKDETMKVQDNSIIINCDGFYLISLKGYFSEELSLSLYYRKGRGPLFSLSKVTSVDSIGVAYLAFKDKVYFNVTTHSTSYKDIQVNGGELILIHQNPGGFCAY
In words: flow cytometry, OX40L HEK minus WT HEK.

For test [2] the target is unchanged. The test can be described thus: flow cytometry.
Test [3] deals with T2, recombinant canine OX40L ECD-TNCc-HIS protein (canine).
T2 construct: also called Trimeric OX40L probe (HIS tag); trimeric canine OX40L
T2 chain: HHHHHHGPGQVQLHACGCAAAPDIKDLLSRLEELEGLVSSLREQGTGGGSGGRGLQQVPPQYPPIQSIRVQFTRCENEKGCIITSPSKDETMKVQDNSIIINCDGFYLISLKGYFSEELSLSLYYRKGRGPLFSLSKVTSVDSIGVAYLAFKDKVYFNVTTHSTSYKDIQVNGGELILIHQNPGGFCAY
The test can be described thus: SPR KD1, bivalent analyte model. In outline: (§1)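 Purified antigen amine-coupled at low density to a CM5 chip; candidate antibodies injected as analyte over a concentration range. Kinetic curves fitted with a bivalent analyte model to give functional affinity and dissociation rates.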

For test [4], the target named is T3, canine OX40L, full length membrane form, expressed on HEK293 cells (canine).
T3 construct: also called OX40L expressing HEK; HEK OX40L cells
T3 chain: T1 sequence
In words: flow cytometry. A digest of the protocol:
(§2)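 CHO supernatants at 1, 5 or 10 μg/ml in PBS/3% FBS incubated 30′ on ice with cells surface-expressing canine OX40L. Bound antibody detected with fluorescent anti-canine Fc secondary (1:1000, 30 min, dark) and measured by flow cytometry, with parental WT HEK signal subtracted where stated.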

For test [5], the target named is T3, canine OX40L, full length membrane …. The test can be described thus: flow cytometry, OX40L HEK minus WT HEK. In outline:
as §2
For orientation: A flow cytometer gives signals particle by particle.

The target is the same in test [6]. In words: cell-based or functional assay.
Test [7] deals with T2, recombinant canine OX40L ECD-TNCc-HIS …. The test can be described thus: SPR Koff (kd2). In outline: as §1
Test [8] shares this target. The test can be described thus: SPR Koff (kd1). In outline:
as §1

For test [9], the target named is T1, canine OX40L, full length membrane form, expressed on HEK293 cells (canine). In words: cell-based or functional assay. This is another data set of the same source.

The molecule neg CTR displayed a GEO mean difference in [1] of -4380. The GEO mean OX40L expressing HEK in test [2] came to 19600.

B1: PMX043 (antibody)
heavy: EVQLVESGGDLVKPEGSLRLSCVVSGFTFSSYDMSWVRQAPGKGLQWVAYITNDGRYTSYTDAVKGRFTISRDNAKNTLYLQMNSLRTEDTAIYYCAKHGSSWSRGRFAMDYWGQGTSLFVSSASTTAPSVFPLAPSCGSTSGSTVALACLVSGYFPEPVTVSWNSGSLTSGVHTFPSVLQSSGLYSLSSMVTVPSSRWPSETFTCNVAHPASKTKVDKPVPKRENGRVPRPPDCPKCPAPESLGGPSVFIFPPKPKDTLLIARTPEVTCVVVDLGREDPEVQISWFVDGKQMQTAKTQPREEQFNGTYRVVSVLPIGHQDWLKGKQFTCKVNHIGLPSPIERTISKARGQAHQPSVYVLPPSREELSKNTVSLTCLIKDFFPPDIDVEWQSNGQQEPESKYRTTPPQLDEDGSYFLYSKLSVDKSRWQRGDTFICAVMHEALHNHYTQKSLSHSPGK
VL: SYVLTQLPSKNVTLNQPAHITCGGDSIGTKSVHWYQQKLGQAPVLIIFYDSSRPTGIPERFSGANSGNTATLTISGALAEDEADYYCQVWDSNASVFGGGTHLTVL
notes: also called PMX43
What is called koff is the first-order rate constant of dissociation. As for B1, the Kd in test [3] was 17 nM. Also, in test [4], the “GEO mean OX40L expressing HEK” value was 1.28e+06. The molecule further returned a GEO mean difference in test [5] of 1.25e+06. In addition, in [6], the “% Signal Inhibition Average” value turned out to be 80.8%, the “% Signal Inhibition Rep1” value worked out at 69.2%, the “% Signal Inhibition Rep2” value worked out at 77.3% and the “% Signal Inhibition Rep3” value was 96.1%. Also, the koff in [7] is 0.0022 s⁻¹. In addition, in [8], the koff was found to be 0.00249 s⁻¹.

B2: PMX044 (antibody)
heavy: EVQLVESGGDPVKPEGSQRLSCVVSGFTFSSYDMSWVRQAPGKGLQWVAYITSDGRSTSYTDAVKGRFTISRDNARNTLFLQMNSLRTEDTAVYYCARHSSSWSRGRFGMDYWGHGTSLFVSSASTTAPSVFPLAPSCGSTSGSTVALACLVSGYFPEPVTVSWNSGSLTSGVHTFPSVLQSSGLYSLSSMVTVPSSRWPSETFTCNVAHPASKTKVDKPVPKRENGRVPRPPDCPKCPAPESLGGPSVFIFPPKPKDTLLIARTPEVTCVVVDLGREDPEVQISWFVDGKQMQTAKTQPREEQFNGTYRVVSVLPIGHQDWLKGKQFTCKVNHIGLPSPIERTISKARGQAHQPSVYVLPPSREELSKNTVSLTCLIKDFFPPDIDVEWQSNGQQEPESKYRTTPPQLDEDGSYFLYSKLSVDKSRWQRGDTFICAVMHEALHNHYTQKSLSHSPGK
VL: B1 VL with N15K, S26N, T29S, F48Y, N93S, S95G
notes: also called PMX44
As for B2, the Kd in [3] was 8.23 nM. The “GEO mean OX40L expressing HEK” value in [4] is 1.53e+06. In [5], this molecule showed a GEO mean difference of 1.5e+06. In [6], the “% Signal Inhibition Average” value is 75.1%, the “% Signal Inhibition Rep1” value worked out at 75.7%, the “% Signal Inhibition Rep2” value worked out at 66% and the “% Signal Inhibition Rep3” value is 83.6%. Further, the koff in [7] stood at 0.0598 s⁻¹. In addition, the koff in test [8] stood at 0.000171 s⁻¹.

B3: PMX046 (antibody)
heavy: B2 heavy with P11L, Q18L, S25A, S30N, S57F, R76K, F80Y, N84S, S104Y, Y112F
VL: B1 VL with N15K, S26N, T29S, V44I, F48Y, N93S
notes: also called PMX46
As for B3, the Kd in test [3] is 40.4 nM. Further, the “GEO mean OX40L expressing HEK” value in test [4] was determined as 1.25e+06. The molecule further had a GEO mean difference in [5] of 1.22e+06. Besides, in [6], the “% Signal Inhibition Average” value amounted to 84.8%, the “% Signal Inhibition Rep1” value is 84.8%, the “% Signal Inhibition Rep2” value came to 69.5% and the “% Signal Inhibition Rep3” value is 100%. Also, the koff in test [7] came out at 2.02e-05 s⁻¹. Further, the koff in [8] turned out to be 0.00101 s⁻¹.

B4: PMX026 (antibody, V domains shown)
VH: EVHLVESGGDLVKPGGSLRLSCVASGFTFSSYHMSWVRQAPGKGLQWVAFINAGEISTNYADAVKGRFTISRDNAKNILYLQMNSLRAEDTAVYYCASGHIWIRPFDYWGQGTLVTVSS
VL: SYVLTQLPSMSVTLRQTARITCEGDSIGRKRVNWYQQKLGQVPVLIIYDDDSRPSGIPERFSGANSGNTATLTISGALAEDEAEYYCQVWDSSNNWVFGEGTQLTVL
notes: also called PMX26
Consider B4, for which the Kd in test [3] stood at 903 nM. Moreover, the “GEO mean OX40L expressing HEK” value in test [4] was 1.39e+06. Moreover, the GEO mean difference in [5] was 1.36e+06. In [6], the “% Signal Inhibition Average” value was 67.1%, the “% Signal Inhibition Rep1” value is 67.6%, the “% Signal Inhibition Rep2” value was 65.1% and the “% Signal Inhibition Rep3” value turned out to be 68.7%. Besides, the koff in test [7] is 0.00131 s⁻¹. The koff in test [8] came out at 0.00191 s⁻¹.

B5: PMX106 (antibody, V domains shown)
VH: EVQLVESGGDLVKPGGSLRLSCVASGFTFSSYHMSWVRQAPGKGLQWVAYINSGGSSTSYADAVKGRFTISRDNAKNTLYLQMNSLRAEDTAVYYCAGFIWTHFDYWGQGTLVTVSS
VL: DIVMTQTPPSLSVSPRETASISCKASQSLLHSDGNTYLDWYLQKPGQSPQLLIYLVSNRFTGVSDRFSGSGSGTDFTLRISRVEANDTGVYYCGQGTQLWTFGAGTKVELK
In turn, B5 came in with a GEO mean difference in [1] of 4100. For the same molecule, the GEO mean OX40L expressing HEK in test [2] was 7760. Also, in test [9], the % Signal Inhibition Average is -17.2%, the % Signal Inhibition Rep1 was -9.89%, the % Signal Inhibition Rep2 was -4.12% and the % Signal Inhibition Rep3 is -37.6%.
